Reference: the supplement of paper PMC10567573

B1: SEC22B (parent)
chain: AKQLFRKLNEQSPTRCTLEAGAMT
B2: C1orf137 (parent)
chain: RQHHHQSSFPGSLPQETNLTLKVC

Variants of: B1
Assay: protein stability index of a GFP-peptide fusion (GPS, HEK-293T) (PSI 1-6); higher = more stable
Conditions: c terminus: a fixed tail appended
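Also: lentivirally expressed fusions sorted by FACS into six bins by GFP to DsRed ratio, PSI derived from sequencing read proportions per bin multiplied by bin number.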

Protein stability index: each site, then its substitutions
F5: C 2.55, T 2.75, I 2.3, L 2.48, E 2.97, W 1.94, A 3.67, G 3.62, H 2.89, Y 2.28, Q 3.23, M 2.62, P 3.46, N 3.07, S 3.44, K 3.47, R 3.22, D 3.37, V 2.95
K7: D 2.7, G 2.24, S 2.31, H 2.64, R 2, F 1.67, P 3.33, A 1.97, T 2.54, C 2.82, N 2.47, E 2.89, Q 2.25, V 2.47, Y 1.52, M 1.83, I 1.81, L 1.69
K2: P 2.57, C 1.7, L 2.1, D 2.42, R 2.76, V 1.54, Q 2, Y 2.24, W 2.92, S 2.4, A 2.13, G 2.77, H 1.94, M 1.8, I 1.43, F 1.72, N 2.72, T 1.83, E 2.92
Q11: P 2.09, S 2.1, H 1.99, R 1.41, V 1.48, D 2.44, K 1.96, N 2.22, E 2.85, M 2.26, Y 1.35, I 1.71, G 2.14, A 1.77, L 1.38, W 1.98, T 1.82, F 1.65, C 2.13
E10: N 1.95, G 2.13, Q 1.54, K 1.65, H 2, T 2.31, F 2.99, M 2.72, L 1.08, R 2.22, D 2.18, I 2.7, Y 3.1, W 1.56, S 2.89, P 1.34, V 1.81, A 1.88, C 1.41
L8: D 3.66, N 2.49, R 3.84, K 3.07, P 2.82, Q 3.08, I 2.1, W 3.19, C 2.35, E 3.13, G 2.49, T 2.89, F 2, A 2.91, V 3.09, H 2.64, Y 1.91, S 2.35, M 2.55
L4: F 1.89, M 2.4, H 3.12, S 3.44, Q 2.68, R 2.96, V 2.07, P 3.07, A 2.73, G 2.94, E 3.62, Y 2.32, I 1.99, K 2.89, C 2.77, N 2.75, D 3.27, W 2.02, T 3.27
N9: M 1.85, H 1.84, S 1.8, V 1.39, Q 2.5, L 1.35, I 2.13, T 1.97, P 2.59, C 1.92, Y 2.6, F 2.57, D 2.98, R 2.88, W 3.44, A 1.95, G 2.47, E 3.56, K 2.58
Q3: F 2.18, C 2.39, S 1.88, W 2.53, I 1.77, K 2.02, E 2.51, N 3.08, V 2.11, H 1.93, A 2.2, L 2.08, T 2.59, R 1.93, G 2.39, M 1.94, D 2.3, Y 1.55, P 2.5
R6: S 2.53, E 2.46, A 2.14, K 2.07, C 2.42, V 2.31, W 2.12, P 2.51, L 2.99, G 2.36, I 1.67, D 2.67, F 1.49, H 2.46, N 2.05, Y 2.15, Q 2.67, M 1.75, T 2.27
S12: H 2.13, G 2.14, E 3.46, D 3.51, F 2.05, A 1.88, I 1.86, L 2.84, C 2.87, K 1.84
A1: T 2.3, N 2.22, C 2.09, H 2.23, I 1.5, P 2.52, V 2.16, R 2.23, L 2.07, D 2.98, K 2.77, E 3.12, S 2.46, Q 2.44, F 2.18, G 2.26, Y 1.89, M 1.6

Variants of: B2
Assay: as above
Conditions: c terminus: a fixed tail appended

Protein stability index, by site and new letter:
L19: Q 3.52, A 4.07, K 3.99, I 3.39, C 3.32, T 3.96, N 3.49, Y 2.95, D 4.63, P 3.31, F 2.47, S 3.55, E 4.34, M 3.16, W 4.19, H 4.14, G 3.98
T20: P 3.62, Y 1.75, K 2.64, G 3.23, Q 3.83, E 3.61, S 3.29, R 3.36, D 4.1, L 2.32, I 2.13, H 2.48, V 2.42, W 2.18, M 2.63, C 2.8, F 2.09, N 3.16, A 3
C24: Y 2.22, F 1.9, N 3.7, H 3.37, A 3.64, Q 3.37, G 3.75, V 2.29, K 4.11, I 1.9, R 4.68, D 4.36, L 3.74, T 3.37, W 2.9, S 3.41, E 4.19, P 3.51, M 2.44
K22: Q 2.92, P 3.53, F 2.14, T 2.43, I 2.49, G 3.42, R 2.28, C 1.75, D 3.5, S 3.34, M 2.28, N 2.92, Y 2.28, E 3.44, L 1.94, A 2.57, H 2.75
L21: I 2.41, D 4.43, Y 3.96, C 3.97, W 3.08, H 3.76, Q 3.95, K 3.79, T 4.54, R 3.95, S 4.02, F 2.88, V 3.23, M 3.79, N 4.32, E 4.5, A 4, G 4.36
V23: Q 4.5, L 3.03, E 4.27, H 4.2, I 2.46, W 2.86, P 3.79, F 2.5, R 3.83, Y 2.73, N 3.34, D 4.72, T 3.76, K 2.97, M 3.33, A 3.78, G 4.43, C 3.41, S 3.73
N18: Q 3.66, W 1.06, T 2, Y 2.08, V 2.46, P 3.17, R 2.29, S 2.65
